Reference: patent publication US20230331835A1 (WISCONSIN ALUMNI RESEARCH FOUNDATION, published 2023)

B1: 46.1-scFv-Fc (Fc fusion)
chain: QVQLQESGGGLAQPGGSLRLSCAASGFTFSGYWMHWVRQAPGKGLVWVSRIKGDGTDIEYADSVKGRFTISRDNAKNTLYLQMNSLRAEDTAVYYCARDLRQTHWFDSWGQGTLVTVSSGGGGSGGGGSGGGGSQSALTQDPAVSVALGQTVRITCQGDSLRSYYASWYQQKPGQAPVLVMYGENSRPSGIPDRFSGSNSGNTASLIITGAQAEDEADYYCSSRDTSGNHVLFGGGTKLTVLG
notes: scFv linked directly to rabbit IgG Fc, made in HEK293F cells; dimer; also called clone 46.1 scFv-Fc; not shown: rabbit IgG Fc region (pIRES-rabbit Fc vector)
B2: 17-scFv-Fc (Fc fusion)
chain: QVQLLQSAGALVQPGGSLRLSCAASGFTFSSSTMHWVRQAPGKGLEWVAVVSYDGNTQYYADSVKGRFTISRDNSKNTLSLQMNNLRAEDTAVYYCAGLWGSLLGYFQHWGQGTLVTVSSGGGGSGGGGSGGGGSDIQMTQSPSFLSASVGDRVTITCRASQGVNNYLAWYQQKPGKAPKLLIYAASTLQSGVPSSFSGSGSGTEFTLTISSLQPEDFATYFCQQAHSFPPTFGGGTKLEIKR
notes: scFv linked directly to rabbit IgG Fc, made in HEK293F cells; dimer; also called clone 17 scFv-Fc; not shown: rabbit IgG Fc region (pIRES-rabbit Fc vector)

Target: T1, recombinant insulin receptor ecto-domain protein rIR (R&D Systems #1444-IR) (UniProt P06213-2 28-944, limits assumed)
T1 construct: extracellular domain; Bought protein; also called soluble IR ectodomain
Experiment: competitive BMEC binding assay: scFv-Fc pre-incubated with soluble ectodomain, then cell surface binding on BMECs

T1 sequence (P06213 other isoform, or with tags, fused parts or gaps limits assumed): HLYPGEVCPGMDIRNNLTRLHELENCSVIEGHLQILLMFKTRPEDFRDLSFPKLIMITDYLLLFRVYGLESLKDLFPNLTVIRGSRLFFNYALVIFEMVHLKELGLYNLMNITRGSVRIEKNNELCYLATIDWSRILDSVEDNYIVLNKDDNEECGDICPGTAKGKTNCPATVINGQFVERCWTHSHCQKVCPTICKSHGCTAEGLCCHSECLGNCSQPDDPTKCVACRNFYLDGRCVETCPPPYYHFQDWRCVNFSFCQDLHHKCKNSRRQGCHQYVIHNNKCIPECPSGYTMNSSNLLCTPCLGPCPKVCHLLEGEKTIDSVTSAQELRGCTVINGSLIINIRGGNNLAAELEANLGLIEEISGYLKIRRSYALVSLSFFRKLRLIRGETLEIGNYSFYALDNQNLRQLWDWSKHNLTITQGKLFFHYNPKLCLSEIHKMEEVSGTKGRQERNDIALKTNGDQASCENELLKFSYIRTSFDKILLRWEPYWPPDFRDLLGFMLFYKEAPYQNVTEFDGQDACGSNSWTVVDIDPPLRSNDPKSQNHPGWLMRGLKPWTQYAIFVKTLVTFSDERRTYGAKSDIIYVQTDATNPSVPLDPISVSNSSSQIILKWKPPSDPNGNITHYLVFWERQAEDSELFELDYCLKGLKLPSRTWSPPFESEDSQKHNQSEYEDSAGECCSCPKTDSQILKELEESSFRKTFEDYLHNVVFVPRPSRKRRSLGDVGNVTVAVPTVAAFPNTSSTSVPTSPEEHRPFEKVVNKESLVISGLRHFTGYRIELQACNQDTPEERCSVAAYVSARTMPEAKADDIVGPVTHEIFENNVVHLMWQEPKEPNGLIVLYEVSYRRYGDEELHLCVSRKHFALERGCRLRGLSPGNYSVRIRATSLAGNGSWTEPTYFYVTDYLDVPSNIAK

| Binder | binding result |
| --- | --- |
| B1 | no binding |
| B2 | no binding |
